Assay results from the RNAGym collection of RNA variant scans (doi:10.1073/pnas.2313332121).
Variants at the floor of the assay were thinned out.

B1: TPR 5TU (parent)
chain: GGAUCUUCUCGAUCUAACAAAAAAGACAAAUCUGCCACAAAGCUUGAGAGCAUCUUCGGAUGCAGAGGCGGCAGCCUUCGGUGGCGCGAUAGCGCCAACGUUCUCAACUAUGACACGCAAAACGCGUGCUCCGUUGAAUGGAGUUUAUCAUG

Variants of: B1
Test: polymerase ribozyme fitness, log enrichment relative to wild type (log ratio); higher = more active; in vitro selection for triplet polymerase activity
In short: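 Genotype fitness is the logarithm of its enrichment divided by wild-type enrichment, using inverse-variance-weighted averages of replicates. That logarithm is base 2. Enrichment was measured by Illumina sequencing of input and output libraries from one triplicate in vitro selection round, with frozen incubation at −7 °C, on PCR-built, transcribed mutant libraries of each subunit of a heterodimeric triplet polymerase ribozyme, retaining genotypes with ≥10 input reads and ≥1 read per output.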
In the case of C35U U55A U56A G92A A110U U135A G152C, the “polymerase ribozyme fitness (log ratio)” value is reported as no more than -4.2. In the case of A37G C54U G59C C69U, the “polymerase ribozyme fitness (log ratio)” value is reported as -1.86. For A39C G68A A89G G128U A138G, the “polymerase ribozyme fitness (log ratio)” value was no more than -4.2. In the case of C38U C54A C57G G143A, the “polymerase ribozyme fitness (log ratio)” value is reported as -4.08. In the case of C38G G68C C85G G126A U139G G140A C149G, the “polymerase ribozyme fitness (log ratio)” value is reported as no more than -4.2. With C38U U55A G59C U135C the “polymerase ribozyme fitness (log ratio)” value was -1.98. With C38U C85U U146G the “polymerase ribozyme fitness (log ratio)” value was -0.571. With C35U G133U the “polymerase ribozyme fitness (log ratio)” value was -3.79. In the case of A37U U44A G86C, the “polymerase ribozyme fitness (log ratio)” value is reported as no more than -4.2. With C38U C96A G141A the “polymerase ribozyme fitness (log ratio)” value was -0.0442. With C36U G58A A119G G140A the “polymerase ribozyme fitness (log ratio)” value was -4.18. For A37G C123U, the “polymerase ribozyme fitness (log ratio)” value was -1.8. With C38A C76A A97G U134G the “polymerase ribozyme fitness (log ratio)” value was -3.3. In the case of A37C A52U C132U, the “polymerase ribozyme fitness (log ratio)” value is reported as -4.13. For C38U G62C G94U, the “polymerase ribozyme fitness (log ratio)” value was -3.3. For C38U G65C G70U C85G U111G A115U U127G G140C U146G, the “polymerase ribozyme fitness (log ratio)” value was no more than -4.2. For C38G A49U U55A C87A G126A G143C, the “polymerase ribozyme fitness (log ratio)” value was no more than -4.2. With A39C G80U C114U the “polymerase ribozyme fitness (log ratio)” value was no more than -4.2. For C36G U56A A98G, the “polymerase ribozyme fitness (log ratio)” value was -3.71. For C36U G92C, the “polymerase ribozyme fitness (log ratio)” value was -1.37. In the case of A37C A41U A52C C118A, the “polymerase ribozyme fitness (log ratio)” value is reported as -3.42. For C38G C51U, the “polymerase ribozyme fitness (log ratio)” value was -0.547. In the case of A37C A49C G81A G92C A106G C108A A115U A137U G143U, the “polymerase ribozyme fitness (log ratio)” value is reported as no more than -4.2. For A37G G81C A142C, the “polymerase ribozyme fitness (log ratio)” value was -3.82. For C35U U61A G86A C125G G141U, the “polymerase ribozyme fitness (log ratio)” value was no more than -4.2. For A37U A89U U146A, the “polymerase ribozyme fitness (log ratio)” value was -1.62. For C36U A37G U53A C54U C87G, the “polymerase ribozyme fitness (log ratio)” value was no more than -4.2. For A37C U55A, the “polymerase ribozyme fitness (log ratio)” value was 0.0873. With C38U G117U the “polymerase ribozyme fitness (log ratio)” value was 0.325. For C38U C85U A107U C125G A147C, the “polymerase ribozyme fitness (log ratio)” value was no more than -4.2. In the case of A39C C149U, the “polymerase ribozyme fitness (log ratio)” value is reported as -2.97. In the case of A37U A49U U55A U56A U127A, the “polymerase ribozyme fitness (log ratio)” value is reported as no more than -4.2. In the case of A39C A40G A49C G80U G86U A106C A150C, the “polymerase ribozyme fitness (log ratio)” value is reported as no more than -4.2. In the case of C36U A91U, the “polymerase ribozyme fitness (log ratio)” value is reported as no more than -4.2. In the case of C35U G92C U135C, the “polymerase ribozyme fitness (log ratio)” value is reported as -2.73. In the case of A37C A40C G58U G94A A97U G143C, the “polymerase ribozyme fitness (log ratio)” value is reported as no more than -4.2. For C38U A47G U53A G141C, the “polymerase ribozyme fitness (log ratio)” value was -2.86. In the case of A37U A60G A91G G143C, the “polymerase ribozyme fitness (log ratio)” value is reported as no more than -4.2. With C38U A41C C132U the “polymerase ribozyme fitness (log ratio)” value was -1.49. In the case of C38A C76U, the “polymerase ribozyme fitness (log ratio)” value is reported as -0.21. In the case of A37C G92U, the “polymerase ribozyme fitness (log ratio)” value is reported as -0.276. In the case of A37C C54G G92U A97U A119U, the “polymerase ribozyme fitness (log ratio)” value is reported as no more than -4.2. In the case of C38A G83U C96G U144A, the “polymerase ribozyme fitness (log ratio)” value is reported as -0.619. For C35U G117C C118U, the “polymerase ribozyme fitness (log ratio)” value was -1.01. In the case of A37C C69G G70A C116A, the “polymerase ribozyme fitness (log ratio)” value is reported as -3.56. In the case of C38A C95G C99U A138G, the “polymerase ribozyme fitness (log ratio)” value is reported as no more than -4.2. With A37G C72U A97G U102G C118U the “polymerase ribozyme fitness (log ratio)” value was no more than -4.2. In the case of A37C U45A C79U A97U U144A, the “polymerase ribozyme fitness (log ratio)” value is reported as no more than -4.2. With C38A C87U A107U the “polymerase ribozyme fitness (log ratio)” value was -4.17. In the case of C38U C51U C76A C79A A97U G100A C103G A106G A120G, the “polymerase ribozyme fitness (log ratio)” value is reported as no more than -4.2. In the case of C38A U53A C87U, the “polymerase ribozyme fitness (log ratio)” value is reported as -1.39. With C36A C93A C105G C125A the “polymerase ribozyme fitness (log ratio)” value was no more than -4.2. For C38U U45G U55A A60U G71A, the “polymerase ribozyme fitness (log ratio)” value was no more than -4.2. With C36A U82G U135C U145G G152U the “polymerase ribozyme fitness (log ratio)” value was -3.98. For C36A C95U C125G U127C, the “polymerase ribozyme fitness (log ratio)” value was no more than -4.2. For A37C C57G C76G A98G A138C G140U, the “polymerase ribozyme fitness (log ratio)” value was -3.42. With C38U G84U A91U the “polymerase ribozyme fitness (log ratio)” value was no more than -4.2. For C38A U109A C114U C116G, the “polymerase ribozyme fitness (log ratio)” value was no more than -4.2. In the case of C38U C149U A150U, the “polymerase ribozyme fitness (log ratio)” value is reported as -1.23. With C38U G42C A52U U61G G133U the “polymerase ribozyme fitness (log ratio)” value was no more than -4.2. For C38G A49C C76G C93U C125A U135A G143C U144A, the “polymerase ribozyme fitness (log ratio)” value was no more than -4.2. For C38A A66G G70A, the “polymerase ribozyme fitness (log ratio)” value was no more than -4.2. In the case of C38U A40G, the “polymerase ribozyme fitness (log ratio)” value is reported as -2.26. In the case of C38U C57G G58A C116A A138G, the “polymerase ribozyme fitness (log ratio)” value is reported as no more than -4.2. In the case of C38U U61G C85A G94C C123A, the “polymerase ribozyme fitness (log ratio)” value is reported as -1.29. In the case of C38G G74C C87U, the “polymerase ribozyme fitness (log ratio)” value is reported as no more than -4.2. For C38A G70A C85G U127C, the “polymerase ribozyme fitness (log ratio)” value was no more than -4.2. In the case of C38U G126U, the “polymerase ribozyme fitness (log ratio)” value is reported as -0.118. With C35U U56A C95A C105U G126C the “polymerase ribozyme fitness (log ratio)” value was -1.08. For C38A A91G, the “polymerase ribozyme fitness (log ratio)” value was -3.39. With C38G C51U C95A C99G A106U C125A U134A the “polymerase ribozyme fitness (log ratio)” value was no more than -4.2. With C35U G94U the “polymerase ribozyme fitness (log ratio)” value was -0.729. For C38U U55A, the “polymerase ribozyme fitness (log ratio)” value was -0.159. In the case of C36U C54A G68A G71A C95G A115U A122G, the “polymerase ribozyme fitness (log ratio)” value is reported as no more than -4.2. For A37G C54U, the “polymerase ribozyme fitness (log ratio)” value was -2.05. For C36U C51G A107U G128A U139G, the “polymerase ribozyme fitness (log ratio)” value was no more than -4.2. In the case of A37G C69G, the “polymerase ribozyme fitness (log ratio)” value is reported as -0.726. For A37U G94A U104G, the “polymerase ribozyme fitness (log ratio)” value was -2.92. In the case of C36U A107G U151A, the “polymerase ribozyme fitness (log ratio)” value is reported as no more than -4.2. In the case of A37C G86C, the “polymerase ribozyme fitness (log ratio)” value is reported as -3.09. In the case of C36U C85U G124C, the “polymerase ribozyme fitness (log ratio)” value is reported as -2.46. For A39C G80A A97U G126U U144A, the “polymerase ribozyme fitness (log ratio)” value was no more than -4.2. With A39C A49G the “polymerase ribozyme fitness (log ratio)” value was -3.48.
